# Measured values as given in patent US20230287598A1.
# Where “and” joins values, the source holds several entries; their conditions need not be identical. Identical values can stand only once. Like-named read-outs stand apart in the source and are kept apart here.
# Key:
# CXCR1 [1] = target: CXCR1 (UniProt P25024); assay: cell-based or functional assay
# CXCR1 [2] = target: CXCR1 (UniProt P25024); assay: cell-based or functional assay; remark: listed apart in the source
# CXCR1 [3] = target: CXCR1 (UniProt P25024); assay: flow cytometry on CXCR1-U2OS cells, supernatant IgG (parental U2OS: 76)
# Kv1.3 (human) = Kv1.3 (human) (UniProt P22001); assay: cell-based or functional assay
# CXCR1 [4] = target: CXCR1 (UniProt P25024); assay: flow cytometry, CXCR1-U2OS / parental U2OS; HC BLV1H12+CDR3-IL8
# Chain of IL-8 (P10145 28-99 limits assumed): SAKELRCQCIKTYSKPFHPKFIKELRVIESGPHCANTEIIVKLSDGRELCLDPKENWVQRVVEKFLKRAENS
# Chain of soluble IL-8 (P10145 28-99 limits assumed): as above
# Chain of Kv1.3 (human) (P22001 whole entry): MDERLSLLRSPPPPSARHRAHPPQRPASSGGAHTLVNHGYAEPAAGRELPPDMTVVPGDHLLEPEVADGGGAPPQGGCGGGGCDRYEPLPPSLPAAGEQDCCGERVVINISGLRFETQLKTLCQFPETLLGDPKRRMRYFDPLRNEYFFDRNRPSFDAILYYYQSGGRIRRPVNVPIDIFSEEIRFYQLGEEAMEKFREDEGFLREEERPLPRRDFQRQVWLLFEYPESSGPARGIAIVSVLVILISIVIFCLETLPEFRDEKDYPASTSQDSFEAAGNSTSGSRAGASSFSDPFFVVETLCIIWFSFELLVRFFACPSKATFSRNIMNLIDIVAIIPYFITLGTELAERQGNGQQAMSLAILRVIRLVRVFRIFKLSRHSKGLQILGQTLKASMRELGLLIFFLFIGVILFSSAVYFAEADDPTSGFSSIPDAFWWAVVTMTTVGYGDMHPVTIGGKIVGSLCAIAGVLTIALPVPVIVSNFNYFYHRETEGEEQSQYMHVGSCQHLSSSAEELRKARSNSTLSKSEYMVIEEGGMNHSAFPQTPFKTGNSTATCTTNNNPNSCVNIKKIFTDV
# Chain of CXCR1 (P25024 whole entry): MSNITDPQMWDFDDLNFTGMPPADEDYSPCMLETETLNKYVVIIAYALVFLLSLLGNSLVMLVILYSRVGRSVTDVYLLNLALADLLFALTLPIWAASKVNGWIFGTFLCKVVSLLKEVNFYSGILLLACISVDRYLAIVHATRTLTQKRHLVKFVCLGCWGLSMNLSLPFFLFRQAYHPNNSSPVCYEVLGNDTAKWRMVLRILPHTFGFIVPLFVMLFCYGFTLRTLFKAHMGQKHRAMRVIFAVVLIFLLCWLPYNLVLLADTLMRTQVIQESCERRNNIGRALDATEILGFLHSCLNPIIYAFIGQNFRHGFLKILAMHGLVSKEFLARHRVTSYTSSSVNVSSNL
substance,measurement,setting,value
IgG VH4-4 CDR3 BsaI (lacking the IL-8 insert) (antibody),"CXCR1 activation, average RLU at 0.001 nM IgG",CXCR1 [1],7500 RLU
same,"CXCR1 activation, average RLU at 0.004 nM IgG",CXCR1 [1],7390 RLU
same,"CXCR1 activation, average RLU at 0.013 nM IgG",CXCR1 [1],7050 RLU
same,"CXCR1 activation, average RLU at 0.040 nM IgG",CXCR1 [1],6970 RLU
same,"CXCR1 activation, average RLU at 0.120 nM IgG",CXCR1 [1],7330 RLU
same,"CXCR1 activation, average RLU at 0.359 nM IgG",CXCR1 [1],6690 RLU
same,"CXCR1 activation, average RLU at 1.076 nM IgG",CXCR1 [1],7180 RLU
same,"CXCR1 activation, average RLU at 3.228 nM IgG",CXCR1 [1],7030 RLU
same,"CXCR1 activation, average RLU at 9.685 nM IgG",CXCR1 [1],7170 RLU
same,"CXCR1 activation, average RLU at 29.056 nM IgG",CXCR1 [1],7100 RLU
same,"CXCR1 activation, average RLU at 87.167 nM IgG",CXCR1 [1],7140 RLU
same,"CXCR1 activation, average RLU at 261.500 nM IgG",CXCR1 [1],7540 RLU
IL-8 (from UniProt P10145 28-99) (ligand),"CXCR1 activation, luminescence at 0.4 nM IL-8 domains",CXCR1 [2],6530
same,"CXCR1 activation, luminescence at 1.6 nM IL-8 domains",CXCR1 [2],12200
same,"CXCR1 activation, luminescence at 6.25 nM IL-8 domains",CXCR1 [2],28600
same,"CXCR1 activation, luminescence at 25 nM IL-8 domains",CXCR1 [2],50500
same,"CXCR1 activation, luminescence at 100 nM IL-8 domains",CXCR1 [2],70200
same,"CXCR1 activation, average RLU at 0.01 nM",CXCR1 [1],440 RLU
same,"CXCR1 activation, average RLU at 0.08 nM",CXCR1 [1],504 RLU
same,"CXCR1 activation, average RLU at 0.23 nM",CXCR1 [1],940 RLU
same,"CXCR1 activation, average RLU at 0.69 nM",CXCR1 [1],1940 RLU
same,"CXCR1 activation, average RLU at 2.06 nM",CXCR1 [1],4110 RLU
same,"CXCR1 activation, average RLU at 6.17 nM",CXCR1 [1],5870 RLU
same,"CXCR1 activation, average RLU at 18.52 nM",CXCR1 [1],7300 RLU
same,"CXCR1 activation, average RLU at 31.5 nM",CXCR1 [1],55500 RLU
same,"CXCR1 activation, average RLU at 55.56 nM",CXCR1 [1],7360 RLU
same,"CXCR1 activation, average RLU at 166.67 nM",CXCR1 [1],6770 RLU
same,"CXCR1 activation, average RLU at 500.00 nM",CXCR1 [1],5720 RLU
same,"CXCR1 activation, luminescence at 0.4 nM IL-8 domains",CXCR1 [1],4930
same,"CXCR1 activation, luminescence at 1.6 nM IL-8 domains",CXCR1 [1],8730
same,"CXCR1 activation, luminescence at 6.25 nM IL-8 domains",CXCR1 [1],22300
same,"CXCR1 activation, luminescence at 25 nM IL-8 domains",CXCR1 [1],42200
same,"CXCR1 activation, luminescence at 100 nM IL-8 domains",CXCR1 [1],54000
soluble IL-8 (from UniProt P10145 28-99) (ligand),"CXCR1 activation, luminescence, 0.1 nM IL-8 domains",CXCR1 [1],4200 luminescence
same,"CXCR1 activation, luminescence, 0.5 nM IL-8 domains",CXCR1 [1],9790 luminescence
same,"CXCR1 activation, luminescence, 2.2 nM IL-8 domains",CXCR1 [1],25700 luminescence
same,"CXCR1 activation, luminescence, 9.9 nM IL-8 domains",CXCR1 [1],50300 luminescence
same,"CXCR1 activation, luminescence, 44 nM IL-8 domains",CXCR1 [1],54100 luminescence
same,"CXCR1 activation, luminescence, 200 nM IL-8 domains",CXCR1 [1],50400 luminescence
BLV1H12+CDR3-IL8 IgG (antibody),Median Arbitrary Fluorescence Units (AFU),CXCR1 [3],707 AFU
same,"CXCR1 activation, average RLU at 0.001 nM IgG",CXCR1 [1],7440 RLU
same,"CXCR1 activation, average RLU at 0.004 nM IgG",CXCR1 [1],7240 RLU
same,"CXCR1 activation, average RLU at 0.01 nM",CXCR1 [1],435 RLU
same,"CXCR1 activation, average RLU at 0.013 nM IgG",CXCR1 [1],7330 RLU
same,"CXCR1 activation, average RLU at 0.040 nM IgG",CXCR1 [1],7740 RLU
same,"CXCR1 activation, average RLU at 0.08 nM",CXCR1 [1],822 RLU
same,"CXCR1 activation, average RLU at 0.120 nM IgG",CXCR1 [1],8870 RLU
same,"CXCR1 activation, average RLU at 0.23 nM",CXCR1 [1],1520 RLU
same,"CXCR1 activation, average RLU at 0.359 nM IgG",CXCR1 [1],13300 RLU
same,"CXCR1 activation, average RLU at 0.69 nM",CXCR1 [1],2650 RLU
same,"CXCR1 activation, average RLU at 1.076 nM IgG",CXCR1 [1],23700 RLU
same,"CXCR1 activation, average RLU at 2.06 nM",CXCR1 [1],3640 RLU
same,"CXCR1 activation, average RLU at 3.228 nM IgG",CXCR1 [1],34500 RLU
same,"CXCR1 activation, average RLU at 6.17 nM",CXCR1 [1],4430 RLU
same,"CXCR1 activation, average RLU at 9.685 nM IgG",CXCR1 [1],39300 RLU
same,"CXCR1 activation, average RLU at 18.52 nM",CXCR1 [1],5070 RLU
same,"CXCR1 activation, average RLU at 29.056 nM IgG",CXCR1 [1],47600 RLU
same,"CXCR1 activation, average RLU at 55.56 nM",CXCR1 [1],5510 RLU
same,"CXCR1 activation, average RLU at 87.167 nM IgG",CXCR1 [1],52100 RLU
same,"CXCR1 activation, average RLU at 166.67 nM",CXCR1 [1],6210 RLU
same,"CXCR1 activation, average RLU at 261.500 nM IgG",CXCR1 [1],56300 RLU
same,"CXCR1 activation, average RLU at 500.00 nM",CXCR1 [1],6640 RLU
Negative Control IgG (antibody),"IL-2 ELISA (A450), Donor 1, 0.01 nM IgG",Kv1.3 (human),2 A450 and 2.15 A450
same,"IL-2 ELISA (A450), Donor 1, 0.75 nM IgG",Kv1.3 (human),2.11 A450 and 2.04 A450
same,"IL-2 ELISA (A450), Donor 1, 68 nM IgG",Kv1.3 (human),1.48 A450 and 1.55 A450
same,"IL-2 ELISA (A450), Donor 2, 0.01 nM IgG",Kv1.3 (human),1.61 A450 and 1.48 A450
same,"IL-2 ELISA (A450), Donor 2, 0.75 nM IgG",Kv1.3 (human),1.56 A450 and 1.52 A450
same,"IL-2 ELISA (A450), Donor 2, 68 nM IgG",Kv1.3 (human),1.5 A450 and 1.37 A450
same,"TNF-α ELISA (A450), Donor 1, 0.01 nM IgG",Kv1.3 (human),1.62 A450 and 1.66 A450
same,"TNF-α ELISA (A450), Donor 1, 0.75 nM IgG",Kv1.3 (human),1.69 A450 and 1.65 A450
same,"TNF-α ELISA (A450), Donor 1, 68 nM IgG",Kv1.3 (human),1.02 A450 and 1.13 A450
same,"TNF-α ELISA (A450), Donor 2, 0.01 nM IgG",Kv1.3 (human),2.07 A450 and 1.77 A450
same,"TNF-α ELISA (A450), Donor 2, 0.75 nM IgG",Kv1.3 (human),2.04 A450 and 1.85 A450
same,"TNF-α ELISA (A450), Donor 2, 68 nM IgG",Kv1.3 (human),1.88 A450 and 1.54 A450
BLV1H12+CDR3-IL8 / BLV1H12 light chain (SEQ ID NO: 412) IgG (antibody),FACS CXCR1/Parental Ratio,CXCR1 [4],5
BLV1H12-IL8 (antibody),"CXCR1 activation, luminescence, 0.1 nM IL-8 domains",CXCR1 [1],4520 luminescence
same,"CXCR1 activation, luminescence, 0.5 nM IL-8 domains",CXCR1 [1],9940 luminescence
same,"CXCR1 activation, luminescence, 2.2 nM IL-8 domains",CXCR1 [1],17600 luminescence
same,"CXCR1 activation, luminescence, 9.9 nM IL-8 domains",CXCR1 [1],25300 luminescence
same,"CXCR1 activation, luminescence, 44 nM IL-8 domains",CXCR1 [1],32600 luminescence
same,"CXCR1 activation, luminescence, 200 nM IL-8 domains",CXCR1 [1],32200 luminescence
